Literature values, collected in paper PMC9360543.

Legend:
[1] = biological target: GRP78 (Homo sapiens) (UniProt P11021)
[2] = biological target: Integrin αvβ5 (Homo sapiens) (UniProt P06756); experiment: solid-phase ELISA-based binding assay
Chain of UniProt P06756 (P06756 31-992, chain 1 of 2): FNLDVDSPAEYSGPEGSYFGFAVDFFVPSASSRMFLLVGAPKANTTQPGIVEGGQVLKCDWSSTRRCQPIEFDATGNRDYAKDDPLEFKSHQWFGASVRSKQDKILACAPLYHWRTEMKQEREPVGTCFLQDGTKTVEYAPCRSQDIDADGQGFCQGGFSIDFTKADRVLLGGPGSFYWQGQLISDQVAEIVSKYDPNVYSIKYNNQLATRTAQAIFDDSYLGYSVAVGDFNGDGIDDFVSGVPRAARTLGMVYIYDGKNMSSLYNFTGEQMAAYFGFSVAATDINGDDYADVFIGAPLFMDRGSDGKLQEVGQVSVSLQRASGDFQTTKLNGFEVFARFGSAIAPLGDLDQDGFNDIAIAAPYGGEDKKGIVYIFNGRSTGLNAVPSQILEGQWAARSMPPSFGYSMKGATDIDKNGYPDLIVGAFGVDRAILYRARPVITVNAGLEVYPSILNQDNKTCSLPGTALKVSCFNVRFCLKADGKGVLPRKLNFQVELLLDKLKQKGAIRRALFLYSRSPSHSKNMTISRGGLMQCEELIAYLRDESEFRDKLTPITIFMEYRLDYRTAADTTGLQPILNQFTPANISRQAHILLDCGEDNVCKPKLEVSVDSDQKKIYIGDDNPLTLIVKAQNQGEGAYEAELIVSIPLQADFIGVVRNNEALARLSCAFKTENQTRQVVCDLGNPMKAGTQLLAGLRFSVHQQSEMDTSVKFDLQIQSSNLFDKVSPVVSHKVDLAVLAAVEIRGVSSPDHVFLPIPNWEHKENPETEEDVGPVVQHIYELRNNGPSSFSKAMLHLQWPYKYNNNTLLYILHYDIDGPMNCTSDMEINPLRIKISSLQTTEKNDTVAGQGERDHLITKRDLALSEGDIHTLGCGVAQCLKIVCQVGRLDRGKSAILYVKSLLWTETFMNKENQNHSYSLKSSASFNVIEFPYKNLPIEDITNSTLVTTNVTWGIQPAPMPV
Chain of UniProt P06756 (P18084 24-719, chain 2 of 2, further chain): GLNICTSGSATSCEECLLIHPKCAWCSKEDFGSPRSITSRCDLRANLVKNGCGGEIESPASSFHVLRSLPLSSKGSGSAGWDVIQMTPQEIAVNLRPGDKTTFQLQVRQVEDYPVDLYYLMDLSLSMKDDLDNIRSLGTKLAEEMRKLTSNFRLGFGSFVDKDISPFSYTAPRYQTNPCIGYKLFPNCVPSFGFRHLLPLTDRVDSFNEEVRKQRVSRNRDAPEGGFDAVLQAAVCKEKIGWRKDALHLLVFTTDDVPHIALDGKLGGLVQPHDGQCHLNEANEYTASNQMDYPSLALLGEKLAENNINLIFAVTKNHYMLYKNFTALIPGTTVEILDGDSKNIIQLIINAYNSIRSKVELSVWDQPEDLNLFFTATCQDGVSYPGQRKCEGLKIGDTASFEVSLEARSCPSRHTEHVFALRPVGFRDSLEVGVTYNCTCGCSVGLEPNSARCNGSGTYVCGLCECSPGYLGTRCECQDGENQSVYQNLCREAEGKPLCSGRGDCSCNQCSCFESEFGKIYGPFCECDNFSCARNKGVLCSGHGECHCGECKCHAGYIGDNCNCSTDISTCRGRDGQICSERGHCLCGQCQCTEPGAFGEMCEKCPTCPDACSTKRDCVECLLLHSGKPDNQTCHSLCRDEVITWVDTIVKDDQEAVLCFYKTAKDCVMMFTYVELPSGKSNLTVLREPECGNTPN

Chain of UniProt P11021 (P11021 19-654): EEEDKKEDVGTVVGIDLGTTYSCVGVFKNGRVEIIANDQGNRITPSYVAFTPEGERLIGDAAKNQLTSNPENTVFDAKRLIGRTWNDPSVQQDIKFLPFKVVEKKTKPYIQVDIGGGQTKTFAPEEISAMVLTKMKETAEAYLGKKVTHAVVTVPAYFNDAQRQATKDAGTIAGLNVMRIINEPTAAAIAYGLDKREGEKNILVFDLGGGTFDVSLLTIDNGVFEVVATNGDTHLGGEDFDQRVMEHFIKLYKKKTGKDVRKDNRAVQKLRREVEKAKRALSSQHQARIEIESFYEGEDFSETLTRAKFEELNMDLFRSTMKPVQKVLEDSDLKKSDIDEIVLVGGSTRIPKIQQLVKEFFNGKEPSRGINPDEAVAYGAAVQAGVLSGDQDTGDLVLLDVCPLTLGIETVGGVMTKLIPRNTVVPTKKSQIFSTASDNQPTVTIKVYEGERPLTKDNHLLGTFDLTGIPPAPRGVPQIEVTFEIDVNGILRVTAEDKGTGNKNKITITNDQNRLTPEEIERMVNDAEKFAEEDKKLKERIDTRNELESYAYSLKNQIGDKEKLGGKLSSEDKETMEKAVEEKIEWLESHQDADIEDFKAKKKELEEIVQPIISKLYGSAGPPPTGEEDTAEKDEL

For Isthmin-1 (from UniProt B1AKI9), the Kd [1] is given as 0.00858 µM and the Kd [2] is given as 40 µM.
